How the values were obtained:
Format in all cases: cell-based
X4 HIV-1 LAI virus = assay: GHOST cells expressing CD4 and CXCR4 infected with X4 HIV-1 LAI virus
Method: In order to determine the specificity of CXCR4 515H7 Mab, we evaluated the anti-HIV-1 activity of this Mab using GHOST cells expressing CD4 and CXCR4 or CCR5.
This assay is performed in 48 h using either the X4 HIV-1 LAI virus (with Ghost cells expressing CXCR4) or the R5 HIV-1 BaL virus (with Ghost cells expressing CCR5). 500 μl of Ghost cells were plated (2.5 10^5 cells/ml) for 24 h in Dulbecco culture medium supplemented with 10% FCS. Various dilutions of Mab 515H7 were incubated for 1 h at 37° C. and then diluted HIV-1 LAI virus ( 1/10) and HIV-1 BaL virus ( 1/7) were added to the cells for 48h. Cells were submitted to trypsin and washed with PBS 1×. 300 μL of 1.5% paraformaldehyde were added to the cell pellets for 2 h at +4° C. in the dark, in order to fix the cells and to inactivate viruses. GFP-positive cells were analyzed by flow cytometry and inhibition of HIV-1 infection was calculated.
The percent of inhibition of infected cells was defined as […] with control infected wells with no Mab.

[1] = system: HIV-1 primary isolate 89.6 (dual X4/R5 virus); assay: Neutralization assay, multiple rounds of replication on primary PBMC, isolate 89.6; details: 90% decrease of viral titer
Method: This assay that combines serial dilutions of c515H7 Mab or Maraviroc or combination of both with serial dilutions of virus, analyzes multiple rounds of infection on PBMC (peripheral blood mononuclear cells). Briefly, quadruplicate 25-μl aliquots of serial dilutions (twofold) of c515H7 Mabs or Maraviroc or combination of both were each incubated with 25 μl of serial dilutions of virus in prehydrated 96-well filter plates (1.25-μm pore size, Durapor Dv; Millipore, Molsheim, France). A control titration of the virus (25 μl of RPMI replacing the diluted c515H7 Mabs or Maraviroc) was performed on the same plate as the titrations in the presence of dilutions of the c515H7 Mabs or Maraviroc or combination of both. After 1 h at 37° C., 25 μl of PHA-stimulated PBMC at a concentration of 4×10^6 cells/ml (pool of PHA activated PBMC from five healthy donors) was added to achieve a 75-μl final culture volume of RPMI, 10% fetal calf serum (FCS), and 20 IU of interleukin-2 (IL-2) per ml (R&D System). After 24 h at 37° C., 100 μl of the same culture medium was added. Two washings (200 μl of RPMI each) were performed by filtration on day 4 to remove the c515H7 Mabs and Maraviroc, and 200 μl of fresh culture medium was added. On day 7, the presence of p24 in the culture supernatants was measured by ELISA and compared to that of the negative controls (cultures infected with dilutions of virus and maintained in the presence of 10^−6 M zidovudine [AZT]) to determine positive wells. […]
(§1) This assay that combines serial dilutions of hz515H7 Mab or Maraviroc or combination of both with serial dilutions of virus, analyzes multiple rounds of infection on PBMC (peripheral blood mononuclear cells). […] On day 7, the presence of p24 in the culture supernatants was measured by ELISA and compared to that of the negative controls (cultures infected with dilutions of virus and maintained in the presence of 10^−6 M zidovudine [AZT]) to determine positive wells. […]

[2] = system: HIV-1 primary isolate UG93067 (dual X4/R5 virus); assay: Neutralization assay, multiple rounds of replication on primary PBMC, isolate UG93067
Method: as §1, with “c515H7” for “hz515H7”, “cells). Briefly, quadruplicate 25-μl aliquots of serial dilutions (twofold) of c515H7 Mabs or Maraviroc or combination of both were each incubated with 25 μl of serial dilutions of virus in prehydrated 96-well filter plates (1.25-μm pore size, Durapor Dv; Millipore, Molsheim, France).” for “cells).”
as §1

B1: 515H7: murine anti-CXCR4 monoclonal antibody; light chain variable domain SEQ ID No. 7, heavy chain variable domain SEQ ID No. 8 (antibody, listed as Mus musculus, V domains shown)
VH: EVNLVESGGGLVQPGGSLRLSCATSGFTFTDNYMSWVRQPPGKALEWLGFIRNKANGYTTDYSASVRGRFTISRDNSQSILYLQMNALRAEDSATYYCARDVGSNYFDYWGQGTTLTVSS
VL: DIVMSQSPSSLAVSAGEKVTMSCKSSQSLFNSRTRKNYLAWYQQKPGQSPKLLIYWASARDSGVPARFTGSGSETYFTLTISRVQAEDLAVYYCMQSFNLRTFGGGTKLEIK
X4 HIV-1 LAI virus
  inhibition of HIV-1 X4 Lai virus infection in CXCR4 expressing Ghost cells (in words): able to inhibit
X4 HIV-1 LAI virus; IC for 80% inhibition
  GHOST CXCR4/LAI virus % inhibition of infected cells 80: 0.1 µg/mL

B2: c515H7: chimeric antibody 515H7: murine variable domains fused to human Ckappa and IgG1/IgG2/IgG4 constant domains; isotype tested not stated (antibody, V domains shown)
VH: B1 VH
VL: B1 VL
[1]; Maraviroc at 2 μg/ml added
  IC90 of c515H7 with addition of Maraviroc: 0.2 µg/mL
[1]; single agent, multiple rounds, day 7 p24 ELISA
  IC90: 2 µg/mL
[2]; 10 μg/ml of each, only the combination reached it
  reduction of virus titer by combination of c515H7 and Maraviroc: 90%
[2]; virus UG93067, PBMC
  inhibitory activity of the Mab compared with Maraviroc: similar

From US9090686B2, “Antibodies for the treatment of HIV” (Pierre Fabre Medicament, priority 2009, dated 2015)
